Values of other authors in publication PMC5803488.
pKd: −log10 of the molar value. Read-outs that look alike come from different tables or passages of the source.

Columns and labels:
ubiquitin [1] = molecular target: ubiquitin (UniProt P0CG48)
ubiquitin [2] = molecular target: ubiquitin (UniProt P0CG48); remark: listed apart in the source

Sequence of Tsg101 UEV (Q99816 1-148): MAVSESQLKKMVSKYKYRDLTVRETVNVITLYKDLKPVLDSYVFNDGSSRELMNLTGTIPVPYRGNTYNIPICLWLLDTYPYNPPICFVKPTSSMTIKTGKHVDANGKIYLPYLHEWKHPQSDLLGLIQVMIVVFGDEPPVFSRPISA
Sequence of Vps36 (Eap45) GLUE (Q86VN1 1-138): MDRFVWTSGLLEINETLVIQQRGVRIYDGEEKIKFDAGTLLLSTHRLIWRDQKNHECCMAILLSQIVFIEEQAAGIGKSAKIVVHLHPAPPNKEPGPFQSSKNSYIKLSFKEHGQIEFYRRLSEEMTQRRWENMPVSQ

| Substance | pKd (ubiquitin [1]) | pKd (ubiquitin [2]) |
| --- | --- | --- |
| Vps36 (Eap45) GLUE (from UniProt Q86VN1) | 3.48 | – |
| Tsg101 UEV (from UniProt Q99816) | – | 3.29 |
